# Experimental data taken from paper PMC3056663, “A Bi-Functional Anti-Thrombosis Protein Containing Both Direct-Acting Fibrin(ogen)olytic and Plasminogen-Activating Activities” (PLoS ONE, 2011).
# B1: recombinant eupolytin1 (RE) (Eupolyphaga sinensis) (protein)
# chain: IVGGSDANIEDLPYQLSFEYGGSHMCGASIISENWVVTAAHCVDGVSASSARFRAGSSVRGSGGSLHQATQLIANPQYDYYTIDYDVAVARVATPFSYGSGVQPISLISVEPSAGQTATVSGWGTFFSGGSLPRQLQVVSVPIVSPQQCNNDYASYGGITENMICAAEEQGGKDPCQGDSSGPLTVGGQLAGIVSWGAGCAQRGYPGVYSNVATLRKFITDETGVN
# notes: tag released by enterokinase; primer encodes DDDDK-IVGG at the cleavage site; Mono Q purified
# B2: native eupolytin1 (NE) (Eupolyphaga sinensis) (protein)
# chain: RIVGGSDANIEDLPYQLSFEYGGSHMCGASIISENWVVTAAHCVDGVSASSARFRAGSSVRGSGGSLHQATQLIANPQYDYYTIDYDVAVARVATPFSYGSGVQPISLISVEPSAGQTATVSGWGTFFSGGSLPRQLQVVSVPIVSPQQCNNDYASYGGITENMICAAEEQGGKDPCQGDSSGPLTVGGQLAGIVSWGAGCAQRGYPGVYSNVATLRKFITDETGVN
# notes: mature protein of 227 residues, 27-residue signal peptide removed (precursor 254); purified natively from mid-gut; 26 kDa on SDS-PAGE
# Substrate: N=C(N)NCCC[C@H](NC(=O)c1ccccc1)C(=O)Nc1ccc([N+](=O)[O-])cc1
# Experiment: purified protein
# Type: biochemical, Eupolyphaga sinensis
# Details: 50 mM Tris-HCl, pH 7.8, 37°C
Protein,Km [mM],Vmax [µM/min],kcat/Km [M⁻¹ s⁻¹]
B1,3.01,67200,8e+06
B2,3.24,63000,1e+07
